Reference: IntAct's records for PubMed 24003221

B1: Tyrosine-protein phosphatase non-receptor type 1 (Homo sapiens), P18031 (parent)
chain: MEMEKEFEQIDKSGSWAAIYQDIRHEASDFPCRVAKLPKNKNRNRYRDVSPFDHSRIKLHQEDNDYINASLIKMEEAQRSYILTQGPLPNTCGHFWEMVWEQKSRGVVMLNRVMEKGSLKCAQYWPQKEEKEMIFEDTNLKLTLISEDIKSYYTVRQLELENLTTQETREILHFHYTTWPDFGVPESPASFLNFLFKVRESGSLSPEHGPVVVHCSAGIGRSGTFCLADTCLLLMDKRKDPSSVDIKKVLLEMRKFRMGLIQTADQLRFSYLAVIEGAKFIMGDSSVQDQWKELSHEDLEPPPEHIPPPPRPPKRILEPHNGKCREFFPNHQWVKEETQEDKDCPIKEEKGSPLNAAPYGIESMSQDTEVRSRVVGGSLRGAQAASPAKGEPSLPEKDEDHALSYWKPFLVNMCVATVLTAGAYLCYRFLFNSNT

Variants of: B1
Conditions: with k2c8_human KRT8, P05787
k2c8_human KRT8, P05787, sequence (P05787 whole entry): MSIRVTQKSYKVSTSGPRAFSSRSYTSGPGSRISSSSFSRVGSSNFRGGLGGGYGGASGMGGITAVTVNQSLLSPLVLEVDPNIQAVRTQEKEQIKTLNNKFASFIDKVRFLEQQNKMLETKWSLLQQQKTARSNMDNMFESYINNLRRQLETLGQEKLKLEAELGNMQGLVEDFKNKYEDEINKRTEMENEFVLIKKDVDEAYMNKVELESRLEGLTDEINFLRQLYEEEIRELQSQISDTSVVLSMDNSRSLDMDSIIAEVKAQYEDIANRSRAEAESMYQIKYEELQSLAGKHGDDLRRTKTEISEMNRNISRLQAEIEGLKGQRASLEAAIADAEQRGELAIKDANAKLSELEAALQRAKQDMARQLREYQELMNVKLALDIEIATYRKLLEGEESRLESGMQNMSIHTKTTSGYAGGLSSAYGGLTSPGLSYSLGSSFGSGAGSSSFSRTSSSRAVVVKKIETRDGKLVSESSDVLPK

| Variant | effect of a mutation on the interaction |
| --- | --- |
| D181A | increasing interaction strength |
